Consider three molecules from PMC6533540, “DprA Is Essential for Natural Competence in Riemerella anatipestifer and Has a Conserved Evolutionary Mechanism”.

For the data set, the target named is T1, DprA R123E (Riemerella anatipestifer ATCC11845, UniProt E4TBU2 1-367, R123E).
T1 sequence: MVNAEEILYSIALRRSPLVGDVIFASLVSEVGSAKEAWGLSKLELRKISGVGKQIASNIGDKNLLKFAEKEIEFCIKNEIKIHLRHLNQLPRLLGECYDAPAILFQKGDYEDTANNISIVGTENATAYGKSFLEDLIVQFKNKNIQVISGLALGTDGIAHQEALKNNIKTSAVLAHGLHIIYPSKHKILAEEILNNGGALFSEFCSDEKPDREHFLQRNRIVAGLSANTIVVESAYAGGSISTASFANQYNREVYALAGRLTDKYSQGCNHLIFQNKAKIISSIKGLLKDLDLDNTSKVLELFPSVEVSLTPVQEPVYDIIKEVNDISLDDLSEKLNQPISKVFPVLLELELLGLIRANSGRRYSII
As to the kind of experiment: EMSA; up to 20 uM DprA R123E; 25 mM HEPES pH 7.0, 150 mM NaCl, 10% glycerol, 1 mM DTT, 0.05% IGEPAL, 30 min at 30 C; 8% native PAGE in 0.5x TBE on ice. As to conditions: protein: recombinant, tags: C-terminal His6, chain copies: 2, label: biotin. In general terms: Mobility shift assays separate free from complexed probe on a gel.

As to AAAAACTACGGAACTGACTAAAGGCAGAAAAACTAAACGG (ssDNA) [RA-ssDNA2], the binding result is given as “no binding”.
On to TAGGCTCTGCTAAGGAAGCGTGGGGTCTGTCTAAGTTGGA (ssDNA) [RA-ssDNA1], for which the binding result is reported as “no binding”.

B1: dsDNA annealed from RA-ssDNA1 (dsDNA)
DNA 1: TAGGCTCTGCTAAGGAAGCGTGGGGTCTGTCTAAGTTGGA
DNA 2: TCCAACTTAGACAGACCCCACGCTTCCTTAGCAGAGCCTA
With B1, the binding result (blunt) is reported as “no binding”.
